From patent US20060263349A1

Target: human CD20 on WIL2-S B lymphoblast cells (human) (UniProt P11836)
Test: cell-based or functional assay

Sequence of UniProt P11836 (P11836 whole entry): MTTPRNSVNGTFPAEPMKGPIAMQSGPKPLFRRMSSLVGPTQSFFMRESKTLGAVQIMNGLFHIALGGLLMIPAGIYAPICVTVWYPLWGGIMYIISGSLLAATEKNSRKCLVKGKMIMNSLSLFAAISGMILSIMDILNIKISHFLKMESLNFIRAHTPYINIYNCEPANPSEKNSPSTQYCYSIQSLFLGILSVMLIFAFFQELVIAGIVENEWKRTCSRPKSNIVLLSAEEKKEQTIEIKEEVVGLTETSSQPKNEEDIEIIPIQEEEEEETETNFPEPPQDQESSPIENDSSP

CDC activity above background cell lysis at 0.4 µg/mL Rituximab: 25 to 30%
Rituximab concentration at maximal cell lysis (CDC, WIL2-S cells, … GLO): 5 µg/mL
percentage of live cells remaining at 1 µg/mL Rituximab (control): 40%
Substance: Rituximab (antibody)
